Results as given in patent US20150322129A1 (Sanofi, published 2015).
Where two headings read alike, the source gives them in different places. Numbered stars: 1 amine (or outer) side, 2 acyl side, 3 side chain; on linkers, the order of the positions; unused ones are H or OH. Square brackets hold non-standard residues; d marks the D form. Side chains are listed from the residue outwards. Ends that are not written are not given here. * marks the point of attachment. γGlu = O=C(O)[C@H](CCC(=O)[*:2])N[*:1]; Stearoyl = CCCCCCCCCCCCCCCCCC(=O)*; Palmitoyl = CCCCCCCCCCCCCCCC(=O)*; Aib = CC(C)(N)C(=O)O

T1: human GIP receptor (human, UniProt P48546 22-466)
T1 sequence (looked up): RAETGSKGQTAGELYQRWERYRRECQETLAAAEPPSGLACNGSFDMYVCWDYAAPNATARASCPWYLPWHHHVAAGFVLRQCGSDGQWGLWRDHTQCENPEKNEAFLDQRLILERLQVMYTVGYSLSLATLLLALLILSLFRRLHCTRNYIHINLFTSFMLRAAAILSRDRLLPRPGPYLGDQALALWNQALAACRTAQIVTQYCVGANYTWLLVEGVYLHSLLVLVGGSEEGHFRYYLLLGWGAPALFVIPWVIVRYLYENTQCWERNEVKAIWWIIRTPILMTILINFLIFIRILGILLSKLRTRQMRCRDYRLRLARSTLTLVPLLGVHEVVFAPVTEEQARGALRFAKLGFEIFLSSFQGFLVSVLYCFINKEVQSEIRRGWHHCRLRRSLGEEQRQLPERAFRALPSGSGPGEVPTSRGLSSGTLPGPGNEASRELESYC

B1: SEQ ID NO: 13 (peptide)
peptide: H[dS]HGTFTSDLSKQK([γGlu-γGlu-Palmitoyl])EEEAVRLFIEWLKAGGPSSGAPPPS-NH2
B2: SEQ ID NO: 11 (peptide)
peptide: H[Aib]HGTFTSDLSKQK([γGlu-γGlu-Palmitoyl])EEEAVRLFIEWLKAGGPSSGAPPPS-NH2
B3: SEQ ID NO: 14 (peptide)
peptide: H[dS]HGTFTSDLSKQK([γGlu-Palmitoyl])EEEAVRLFIEWLKAGGPSSGAPPPS-NH2
B4: SEQ ID NO: 25 (peptide)
peptide: H-H[dS]HGTFTSDLSKQK([γGlu-Stearoyl])EEEAVRLFIEWLKAGGPSSGAPPPS-NH2
SMILES: CCCCCCCCCCCCCCCCCC(=O)N[C@@H](CCC(=O)NCCCC[C@H](NC(=O)[C@H](CCC(N)=O)NC(=O)[C@H](CCCCN)NC(=O)[C@H](CO)NC(=O)[C@H](CC(C)C)NC(=O)[C@H](CC(=O)O)NC(=O)[C@H](CO)NC(=O)[C@@H](NC(=O)[C@H](Cc1ccccc1)NC(=O)[C@@H](NC(=O)CNC(=O)[C@H](Cc1c[nH]cn1)NC(=O)[C@@H](CO)NC(=O)[C@@H](N)Cc1c[nH]cn1)[C@@H](C)O)[C@@H](C)O)C(=O)N[C@@H](CCC(=O)O)C(=O)N[C@@H](CCC(=O)O)C(=O)N[C@@H](CCC(=O)O)C(=O)N[C@@H](C)C(=O)N[C@H](C(=O)N[C@@H](CCCNC(=N)N)C(=O)N[C@@H](CC(C)C)C(=O)N[C@@H](Cc1ccccc1)C(=O)N[C@H](C(=O)N[C@@H](CCC(=O)O)C(=O)N[C@@H](Cc1c[nH]c2ccccc12)C(=O)N[C@@H](CC(C)C)C(=O)N[C@@H](CCCCN)C(=O)N[C@@H](C)C(=O)NCC(=O)NCC(=O)N1CCC[C@H]1C(=O)N[C@@H](CO)C(=O)N[C@@H](CO)C(=O)NCC(=O)N[C@@H](C)C(=O)N1CCC[C@H]1C(=O)N1CCC[C@H]1C(=O)N1CCC[C@H]1C(=O)N[C@@H](CO)C(N)=O)[C@@H](C)CC)C(C)C)C(=O)O
B5: SEQ ID NO: 7 (peptide)
peptide: H[Aib]HGTFTSDLSKQK([γGlu-Stearoyl])EEEAVRLFIEWLKAGGPSSGAPPPS-NH2
B6: SEQ ID NO: 12 (peptide)
peptide: H[Aib]HGTFTSDLSKQK([γGlu-Palmitoyl])EEEAVRLFIEWLKAGGPSSGAPPPS-NH2
B7: SEQ ID NO: 35 (peptide)
peptide: H[dS]HGTFTSDLSKQK(Ac)EEEAVRLFIEWLKAGGPSSGAPPPS-NH2
B8: SEQ ID NO: 34 (peptide)
peptide: H-H[Aib]HGTFTSDLSKQK(Ac)EEEAVRLFIEWLKAGGPSSGAPPPS-NH2

What was measured:
Assay in all cases: cell-based or functional assay
human glucagon receptor [1] = target: T2, human glucagon receptor (human, UniProt P47871 26-477)
T2 sequence (P47871 26-477): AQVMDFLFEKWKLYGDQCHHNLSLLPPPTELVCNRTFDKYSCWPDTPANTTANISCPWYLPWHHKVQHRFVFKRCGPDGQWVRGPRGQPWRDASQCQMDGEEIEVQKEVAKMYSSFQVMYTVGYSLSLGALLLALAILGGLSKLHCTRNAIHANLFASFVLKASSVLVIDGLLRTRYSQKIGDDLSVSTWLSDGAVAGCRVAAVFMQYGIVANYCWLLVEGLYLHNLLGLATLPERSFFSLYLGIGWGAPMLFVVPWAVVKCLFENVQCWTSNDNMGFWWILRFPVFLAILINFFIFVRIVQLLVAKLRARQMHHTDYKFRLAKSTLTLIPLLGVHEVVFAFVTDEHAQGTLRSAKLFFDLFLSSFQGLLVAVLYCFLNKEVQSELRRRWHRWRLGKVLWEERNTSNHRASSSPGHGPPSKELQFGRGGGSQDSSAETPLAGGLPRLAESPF

human GIP receptor [2] = target: T1, human GIP receptor
human glucagon receptor [3] = target: T2, human glucagon receptor; remark: listed apart in the source
human GIP receptor [4] = target: T1, human GIP receptor; remark: listed apart in the source
human GLP-1 receptor [5] = target: T3, human GLP-1 receptor (human, UniProt P43220 24-463)
human GLP-1 receptor [6] = target: T3, human GLP-1 receptor; remark: listed apart in the source

Row | Binder | EC50 hGlucagon-R (cAMP formation) (human glucagon receptor [1]) | EC50 hGIP-R (cAMP formation) (human GIP receptor [2]) | EC50 hGlucagon-R (cAMP formation) (human glucagon receptor [3]) | EC50 hGIP-1 (cAMP formation) (human GIP receptor [4]) | EC50 hGLP-1R (cAMP formation) (human GLP-1 receptor [5]) | EC50 hGLP-1R (cAMP formation) (human GLP-1 receptor [6])
1 | B1 | 0.0225 nM | 0.079 nM | 0.0225 nM | 0.079 nM | – | –
2 | B2 | 0.0089 nM | 0.0079 nM | 0.0089 nM | 0.0079 nM | – | –
3 | B3 | 0.0584 nM | 0.437 nM | 0.0584 nM | 0.437 nM | 0.0041 nM | 0.0041 nM
4 | B4 | 0.0399 nM | 0.407 nM | 0.0399 nM | 0.407 nM | 0.0081 nM | 0.0081 nM
5 | B5 | 0.0058 nM | 0.0256 nM | 0.0058 nM | 0.0256 nM | 0.0065 nM | 0.0065 nM
6 | B6 | 0.0128 nM | 0.0088 nM | 0.0128 nM | 0.0088 nM | 0.0033 nM | 0.0033 nM
7 | B7 | – | – | 2.86 nM | 4.04 nM | – | 0.0004 nM
8 | B8 | – | – | 0.829 nM | 0.0254 nM | – | 0.0007 nM
